This is an account of results in the DeepSol protein solubility set.

This data set is described as follows: soluble on expression in E. coli; label from the status in PepcDB or PDB records.
As to “HLDAIQNFGAMDILCTDKTGTLTQDKIVLENHTDVSGKVCERVLHAAWLNSHYQTGLKNLLDTAVLEGVELDAARGLAERWQKVDEIPFDFERRRMSVVVKEDDAAHQLICKGALQEILNVSTQVRYNGDIVPLDDTMLRRIRRVTDTLNRQGLRVVAVATKYLPAREGDYQRADESDLILEGYIAFLDP”, the “soluble on expression in E. coli” value was “not soluble”.

As for “MMEMITIKPGKITVQANPNMPKEVAELFRKQHYEIVGRHSGVKLCHWLKKSLTEGRFCYKQKFYGIHSHRCLQMTPVLAWCTHNCIFCWRPMENFLGTELPQPWDDPAFIVEESIKAQRKLLIGYKGNPKVDKKKFEEAWNPTHAAISLSGEPMLYPYMGDLVEEFHKRGFTTFIVTNGTIPERLEEMIKEDKLPTQLYVSITAPDIETYNSVNIPMIPDGWERILRFLELMRDLPTRTVVRLTLVKGENMHSPEKYAKLILKARPMFVEAKAYMFVGYSRNRLTINNMPSHQDIREFAEALVKHLPGYHIEDEYEPSRVVLIMRDDVDPQGTGVEGRFIKHLEHHHHHH”, the “soluble on expression in E. coli” value is listed as “not soluble”.

“MEYKKILIRLLIAFAVLFSADFTYQSVEQTHQSHAAVNYYSKNQCTWWAFKRRAQVGKPVSNRWGNAKNWYYNARKSKYATGRTPRKFAVMQSTAGYYGHVAVVEQVYKNGSIKVSEYNFYRPLKYNTRVLSKKAARNFNYIYLEHHHHHH”: the “soluble on expression in E. coli” value was “not soluble”.

Consider “MFSIQQPLLVFSDLDGTLLDSHSYDWQPAAPWLTRLREANVPVILCSSKTSAEMLYLQKTLGLQGLPLIAENGAVIQLAEQWQEIDGFPRIISGISHGEISLVLNTLREKEHFKFTTFDDVDDATIAEWTGLSRSQAALTQLHEASVTLIWRDSDERMAQFTARLNELGLQFMQGARFWHVLDASAGKDQAANWIIATYQQLSGKRPTTLGLGDGPNDAPLLEVMDYAVIVKGLNREGVHLHDEDPARVWRTQREGPEGWREGLDHFFSAR”, for which the “soluble on expression in E. coli” value is listed as “soluble”.

With “TITLTENKRKSMEKLSVDGVISALAFDQRGALKRMMAQHQTKEPTVEQIEELKSLVSEELTPFASSILLDPEYGLPASRVRSEEAGLLLAYEKTGYDATTTSRLPDCLDVWSAKRIKEAGAEAVKFLLYYDIDGDQDVNEQKKAYIERIGSECRAEDIPFYLEILTYDEKIADNASPEFAKVKAHKVNEAMKVFSKERFGVDVLKVEVPVNMKFVEGFADGEVLFTKEEAAQAFRDQEASTDLPYIYLSAGVSAKLFQDTLVFAAESGAKFNGVLCGRATWAGSVKVYIEEGPQAAREWLRTEGFKNIDELNKVLDKTASPWTEKM”, the “soluble on expression in E. coli” value is reported as “soluble”.

Consider “LESKNMTWYRMLLVTPVRQGEKVRKFFLHAFHSFEYRALSSGTEEEGLVLTVNDSERTEEIFSCCEKMKAFCKNFLGETPQILCSRAYQQGDDSSLLYEQTKAYAKGRSAEQILIVPQNAEEGDGTDTLLKRVQTYIRNHYTERLTLADIAEAVHVSSSYLSRFYKLKAGENLFDTINSLRVEKAKELLLRGDKKIYEIAALTGFEDTAYFSKVFKKYAGCPPKEYEQSGGRNL”, for which the “soluble on expression in E. coli” value is “not soluble”.

On to “MGSDKIHHHHHHMKYRRIKGTNDIFGEEIWYWRYVEETFRNVCESAGIEEIRTPIFEQTELFVRSVGEESDIVQKEMYTFQDKAGRSITLRPEGTAPVVRAFLENSLIDRGFQQRYYYIGPMFRYEKPQSGRLRQFHQVGFEIIGPESPKADFEVIMLVDTFLRRLGLTKYKIHLNSIGCPVCRKNYREALKEYYGRILDNLCDDCKRRYETNILRLLDCKVDHEYSLNAPKSVDYLCDSCRAHYKKLKEYLNTFEIEYVEDHTLVRGLDYYTRTVFEVRHEGLGAQSAIAGGGRYDGLFAELGGSSVPALGFAGGIERIILALKAEGIEIPMKNVHLVYIATLGEKAFMDGVRLAGELRKKGLSVDVDIMDRKLSGQLKHASRMGSRYAVIIGDEELEKGIVILRDLETGDQVEIDRDFAADYIAERVSKD”, for which the “soluble on expression in E. coli” value is reported as “not soluble”.

Take “MVRYYHIEMLACPECRNPRLILYVVREKRGAMPPQPERLKCRRWCYLFDRPASTVPLSTCVSSCVERDIEEGVLVCPACGRWYPIVEGIPVMMDDKYRDPERDREIASRLAGHVPEWVKLRAVAPVPLEPREAGEG”: the “soluble on expression in E. coli” value is recorded as “soluble”.

“MKKSVDFIGVGTGPFNLSIAALSHQIEELNCLFFDEHPHFSWHPGMLVPDCHMQTVFLKDLVSAVAPTNPYSFVNYLVKHKKFYRFLTSRLRTVSREEFSDYLRWAAEDMNNLYFSHTVENIDFDKKSRLFLVQTSRGEYFARNICLGTGKQPYLPPCVKHVTQSCFHASEMNLRRPDLSGKRITVVGGGQSGADLFLNALRGEWGEAAEINWVSRRNNFNALDEAAFADEYFTPEYISGFSGLKEDIRHQLLDEQKMTSDGITADSLLTIYRELYHRFEVLRKPRNIRLLPSRSVTTLESSGPGWKLLMEHHLDRGRESLESDVVIFATGYRSALPQILPSLMPLITMHDKNTFKVRDDFTLEWSGPKENNIFAVNASMQTHGIAEPQLSLMAWRSARILNRVLGRDLFDLSMPPALIQWRSGSRKKPQPEAAALTHYTTNIQE”: the “soluble on expression in E. coli” value is reported as “soluble”.

Consider “MAHHHHHHMSSDTMPFKLVEPFVLFHTIFSDDFQHPQVAMITQACGSHSTASNQSTSHFLQIFFDFPLHVEPNEAPTDLIFLCKWGTSHSSHTPPHGNDVNVTRTNFLFRQCSQKKSATDY”, for which the “soluble on expression in E. coli” value is listed as “not soluble”.

In the case of “GMTFRDTSAIASWHAHVYFDASSRDAAWTLREQIEAHWSGKLQLGRFHERPVGPHPMWSYQLAFTQEQFADLVGWLTLNHGALDIFLHPNTGDALRDHRDAAVWIGHSHELVLSALN”, the “soluble on expression in E. coli” value was “soluble”.

As to “MGSDKIHHHHHHMIRLSNENTIFFMDKENVPIASCQSGDTVIFETKDCFSDQITNEEQALTSIDFNRVNPATGPLYVEGARRGDMLEIEILDIKVGKQGVMTAAPGLGALGESLNSPTTKLFPIEGDDVVYSTGLRLPLQPMIGVIGTAPPGEPINNGTPGPHGGNLDTKDIKPGTTVYLPVEVDGALLALGDLHAAMGDGEILICGVEIAGTVTLKVNVKKERMFPLPALKTDTHFMTIASAETLDAAAVQATKNMATFLANRTALSIEEAGMLLSGAGDLYVSQIVNPLKTARFSLALHYFEKLGVDLCN”, the “soluble on expression in E. coli” value was “not soluble”.

In the case of “MSGIKPSVSKGESQAPQTRQLEASKPTVQGIIDILHDTISYVQVEKQSKTINFSIPHLQMIKEQLESIQLKDKNYKDLEKKFNEKQDEHLETIQKLDSTLSRQKLKYDDMRQALSVKIYTLENECSNLQDNYADLQNDFEVQIEKFKKLQNLKSIQNHENSKNVNPLTLDELTEQLKQFKEELSIDQKLKNIQLTCEGLQSAVGNFEMNSKKAKEIEILKMDIKKTQELYESRLLRAAQENKKLLRKNDTLKNYLDNQTAKIGELTAGNKTENRSPTPTLQGLIEILQKFSDDQKLEPECKMLQLHKEECRLILESLEVHDKKDQEIQWFQRQINDQKKRIANLGWSYENALEDKDALELKLEHQYEQMMELKKNFIPKNEISEDLAKTVRNFGKRLRNSRGNLKNAFKELEALKEVQEEEGSSDESSESSASDDLPDGDSSSEE”, the “soluble on expression in E. coli” value is on record as “not soluble”.

For the sequence “MAHHHHHHMYFLGEERHFRVLSLSFGVRGLQGSVTSEAAKIQTQMALQQTAYSACSRKVHCVSKHYLDDPFVHFFSRDMTIVNSPLMNRGTWLRTVAIERSVLSFARNWSADGPLQVISFGSGVDTLYFRLKKDHSEVNIVRYIELDFPDLVAEKQRVIEKTERLNQLVGPEYELVPCDLQKPDELREILKRVARNDVPTVLLAEMVFVYLEERTTTAILELTLNDVLKRDMCVLLIAYDAIRPNDRFGEVMVNSLASSGVPLRGIKELPTPEAHAERCKRVGLKSVMATSMRQLYLSVPQETQEWLKKLEMVDDWDEWCIMHDHYCFVLATNKAEALPTIF”, the “soluble on expression in E. coli” value is “not soluble”.

With “MKITLSKRIGLLAFLLPCALALSTTVHAETNKLVIESGDSAQSRQHAAMEKEQWNDTRNLRQKVNKRTEKEWDKADAAFDNRDKCEQSANINAYWEPNTLRCLDRRTGRVITPLEHHHHHH”, the “soluble on expression in E. coli” value was “not soluble”.

As for “GPGSMVHSYGYKSGTRHLFAKKFRKHGAPSVSTILTNIKVGDYVDVVADSAVREGMPHKYYHGRTGIVWNVTPRGVGVIINKPVRTRTLRKRICVRFEHVRKSRCQEAFKAKEHQFQAYLAAKKAGKALPPLQKSSRLGGIVRPKTVEVLARRVADYEAMVPY”, the “soluble on expression in E. coli” value is listed as “not soluble”.

As for “MSLEQLATTSQQEILAERPQLTTKIAVDLDVKGIKEKDEDAWQNVQIYLAQINNEYADGSERYQYLVQTTVDKALRAKGYYNSQYQFVKTVSAEQKPLLTLNVQLDNQKVTIDEVDIQLQGDANTDEDFIELKKTAPNQGDSLAHNAYDDFKSHIEGLAFKKGYFDGQWLYHRLEVYPQNHSVDWRLAYDSGKRYRYGEINFIDNQIKEEYLTNILKIAPQQYYYASDLSLMTADYLSSNWFSSVLVEPKLNEKAKLVDLKIFFQPKKKNKVEIGAGFATQLGARLQLNWKKPWLNERGHSIDSRTYLSLPEQTLELGYNVPLRQNPLHYYYQFSGSLEHQNQQDTKSIAGSFGLQRFWTHETGWSFSAGIKSRYDSFTQANDKHKTLLVYPTAALNRTQTDGNRFPLWGDSQRITVNWGAKIFGSDVSFYSWKASSTWVRTYLDRHRLFLRGEVGQVHTKDFHQIPPTLRYFAGGDMSIRGFAYKSISPKEPKSGKLIGGSHLVTTTAEYQYRIYPDWWAAIFYDTGLVSDKFDHRALHSGAGVGVRWISPIGAIKFDIATPVKSPNNKRGVQFYIGLGSEEGHHHHHH”, the “soluble on expression in E. coli” value is listed as “not soluble”.

On to “SINVYLSLFSQGAESITTYTFNTHKAQHTFCKRCGVQSFYTPRSNPGGFGIAPHCLDEGTVRSVVTEEFNGSDWERAMKEHKTIKNMSKE”, for which the “soluble on expression in E. coli” value is given as “soluble”.

As to “MALLREYKEIAYQWGIWKTEESPEELLALLPDPERYEQQLTLFSSPHRKLEWLSVRVLLYQLLGEEKTIEYAPSGKPHLADSSYFISISHTRGYVAVILSPVSEVGIDIEQYGQRVHKVAHKYMRPDELISEYQGEDTWSLLLHWSAKEVMFKCMDTSEVDFREHLRIMPFQVCEHGEFPAEEYRTEHKKKFMIRYLLHPDFVMTWQVTSAYSVNECDIMKKMQ”, the “soluble on expression in E. coli” value is “not soluble”.

Regarding “GHMNVAKREFIRGMMAHYRASLPPPEHSVVIHELQKRVLDIGMLAVNKAHVELFGSHVSGFCTPHSDADISLTYRNFSPWLQGMERVDEQNNKRMTRFGKEASAMGMEDVRYIRARIPVVQFTDGVTGIHCDVSIGNIGGVENSKILCAIRQVFPDFYGAYIHLVKAWGKAREVIAPERSTFNSFTVTTMALMVLQELGLLPVFSKPTGEFGELTVADAEMLLQEFKLPPIYDSLHDDDEKLGEAVFFCLQRFAEYYAKYDFSAGTVSLIHPRRHRTVYERVVRRHLELLGSRKRLEWEKHIAEHKEDGPLDENDFSASMQNETTQRPSNSPYVVEDFVNYVNCGRRVQASRVRHIQQEFNRLREMLIDKESELKFDEVFRESDTVP”, the “soluble on expression in E. coli” value is “soluble”.

As for “MKSSSPISSLTTIISTGTNLGSGTDDDIYFGIHLNNGQKKEWLLDKETYNDFENGATDEYYLYINDMDFLPTMVDKVWVRKNSTGSFAGNWFFKALRIDANGNDVLSVSPNEWITDSNSQAEFNSDWSSVTNLTDPEFLEHHHHHH”, the “soluble on expression in E. coli” value is “soluble”.

As to “RSFLPPFNEGSFTINVSTLPGISLEESDRMGRMAEEILLSVPEVQTVGRKTGRAELDEHALGVNVSEIEVPFVLKDRSKDEVLADIREKLKVLPGVNIEIGQPISHRIDAMLSGTRANIAIKLFGPDLNRLFAIGNQIKTSVHDVKGVADLNVEQQVERPQLKIVPKREMLAKYGLTPASFAEIVNVMLAGEVVSQVYEGNRSFDLSLKVNDESRESADRIRDLIIDAGGRKIPFAYVADIVSASGPNTINRENVSRKIVVSANVAGRDLRSVVNDIQERIDADITLPEGYHIEYGGQFESEQAASRT”, the “soluble on expression in E. coli” value is on record as “not soluble”.
